Residue numbers refer to the chain shown, from its start. Blank lines part the entries; values can stand above or below the binder they belong to.
Columns and labels:
[1] = target: T1, human IL-17RA, full-length, on cells (human, UniProt Q96F46 33-866); experiment: cell-based or functional assay
[2] = target: T1, human IL-17RA, full-length, on cells; experiment: cell-based or functional assay; remark: listed apart in the source
[3] = target: T2, cynomolgus IL-17RA, on cells (cynomolgus); experiment: FACS competition: non-clonal supernatant inhibiting biotin-huIL-17A (competitor) binding to cyno IL-17RA+ CHO cells
T2 construct: whole, on cells; also called CHO-cynoIL-17RA; cyno IL-17RA+ CHO cells

huIL-17RA-FLAG-polyHis [4] = target: T3, huIL-17RA-FLAG-polyHis (human, UniProt Q96F46 33-320); experiment: binning; IL-17RA held by bead mAb L
T3 construct: also called IL-17RA-FLAG-pHis; wild-type IL-17RA
Procedure: (§1) The method employed the Bio-Plex Workstation and software (BioRad, Hercules, Calif.), as well as reagents from Luminex® Corp. (Austin, Tex.). […] The mouse-anti-human IgG coating was evaluated and the beads quantified by FACS. Each bead code was separately incubated with 10 ul of anti-IL-17RA antibody for 1 hour at room temperature and then washed. The beads were pooled and then dispensed to a 96-well filter plate (Millipore, Billerica, Mass., product #MSBVN1250). […] The PE-tagged monovalent antibody will detect the presence of the second mAb added to the well, but not the first mAb captured by the monovalent mouse-anti-human IgG antibody. Beads were resuspended in 120u1 PBSAT and at least 100 events/bead code were collected on the Bio-Plex workstation as per the manufacturer's recommended protocol.

huIL-17RA-FLAG-polyHis [5] = target: T3, huIL-17RA-FLAG-polyHis; experiment: binning; IL-17RA held by bead mAb H
huIL-17RA-FLAG-polyHis [6] = target: T3, huIL-17RA-FLAG-polyHis; experiment: binning; IL-17RA held by bead mAb P
huIL-17RA-FLAG-polyHis [7] = target: T3, huIL-17RA-FLAG-polyHis; experiment: binning; IL-17RA held by bead mAb E
Procedure: as §1

huIL-17RA-FLAG-polyHis [8] = target: T3, huIL-17RA-FLAG-polyHis; experiment: binning; IL-17RA held by bead mAb A
Procedure: as §1

huIL-17RA-FLAG-polyHis [9] = target: T3, huIL-17RA-FLAG-polyHis; experiment: binning; IL-17RA held by bead mAb R
Procedure: as §1

huIL-17RA-FLAG-polyHis [10] = target: T3, huIL-17RA-FLAG-polyHis; experiment: binning; IL-17RA held by bead mAb N
Procedure: (§2) The method employed the Bio-Plex Workstation and software (BioRad, Hercules, Calif.), as well as reagents from Luminex® Corp. (Austin, Tex.). The manufacturers' basic protocols were followed except where noted below (see www.bio-rad.com and www.luminexcorp.com for details). […] The mouse-anti-human IgG coating was evaluated and the beads quantified by FACS. Each bead code was separately incubated with 10 ul of anti-IL-17RA antibody for 1 hour at room temperature and then washed. The beads were pooled and then dispensed to a 96-well filter plate (Millipore, Billerica, Mass., product #MSBVN1250). […] The PE-tagged monovalent antibody will detect the presence of the second mAb added to the well, but not the first mAb captured by the monovalent mouse-anti-human IgG antibody. Beads were resuspended in 120u1 PBSAT and at least 100 events/bead code were collected on the Bio-Plex workstation as per the manufacturer's recommended protocol.

huIL-17RA-FLAG-polyHis [11] = target: T3, huIL-17RA-FLAG-polyHis; experiment: binning; IL-17RA held by bead mAb F
Procedure: as §1

huIL-17RA-FLAG-polyHis [12] = target: T3, huIL-17RA-FLAG-polyHis; experiment: binning; IL-17RA held by bead mAb I
huIL-17RA-FLAG-polyHis [13] = target: T3, huIL-17RA-FLAG-polyHis; experiment: binning; IL-17RA held by bead mAb G
huIL-17RA-FLAG-polyHis [14] = target: T3, huIL-17RA-FLAG-polyHis; experiment: binning; IL-17RA held by bead mAb Q
huIL-17RA-FLAG-polyHis [15] = target: T3, huIL-17RA-FLAG-polyHis; experiment: binning; IL-17RA held by bead mAb C
Procedure: as §1

huIL-17RA-FLAG-polyHis [16] = target: T3, huIL-17RA-FLAG-polyHis; experiment: binning; IL-17RA held by bead mAb M
Procedure: as §2

huIL-17RA-FLAG-polyHis [17] = target: T3, huIL-17RA-FLAG-polyHis; experiment: binning; IL-17RA held by bead mAb D
Procedure: as §1

huIL-17RA-FLAG-polyHis [18] = target: T3, huIL-17RA-FLAG-polyHis; experiment: binning; IL-17RA held by bead mAb B
Procedure: as §1

huIL-17RA-FLAG-polyHis [19] = target: T3, huIL-17RA-FLAG-polyHis; experiment: binning; IL-17RA held by bead mAb O
huIL-17RA-FLAG-polyHis [20] = target: T3, huIL-17RA-FLAG-polyHis; experiment: binning; IL-17RA held by bead mAb J
huIL-17RA-FLAG-polyHis [21] = target: T3, huIL-17RA-FLAG-polyHis; experiment: binning; IL-17RA held by bead mAb K
Procedure: as §1

IL-17A/HFF bioassay IC50, subclone 10 [1]: 0.22 nM
IL-17A/HFF bioassay IC50, subclone 11 [1]: 1.1 nM
IL-17A/HFF bioassay IC50, subclone 12 [1]: 0.5 nM
IL-17A/HFF IC50 [2]: 0.2 nM
IL-17A/lung fibroblast IC50 [2]: 0.22 nM
IL-17F/HFF IC50 [2]: 0.087 nM
B1: AMH19/AML19 (antibody, IgG2, V domains shown)
VH: QVQLVQSGAEVKKPGASVKVSCKASGYTLTSYGISWVRQAPGQGLEWMGWISAYSGNTKYAQKFQGRVTMTTDTSTSTAYMELRSLRSDDTAVYYCARRQLALDYWGQGTLVTVSS
VL: EIVMTQSPATLSVSPGERATLSCRASQSISSNLAWYQQKPGQAPRLLIYGASTRATGIPARFSDNGSGTEFTLTISSLQSEDFAVYFCQQYDTWPLTFGGGTKVEIK

MFI [3]: 18
B2: AMH22/AML22 (antibody, IgG2, V domains shown)
VH: B1 VH with L29F, S31R, K59N, F64L, A102Y, L103F
VL: EIVMTQSPATLSVSPGERVTLSCRASQSVSSNLAWFQQKPGQAPRPLIYDASTRAAGIPARFSGSGSGTDFTLTISSLQSEDFAVYYCQQYDNWPLTFGGGTKVEIK
notes: human mAb from IgG2 XenoMouse mice; also called AM-22; antibody I

normalized MFI (huIL-17RA-FLAG-polyHis [4]): 1720
normalized MFI (huIL-17RA-FLAG-polyHis [5]): 3970
normalized MFI (huIL-17RA-FLAG-polyHis [6]): 1720
normalized MFI (huIL-17RA-FLAG-polyHis [7]): 175
normalized MFI (huIL-17RA-FLAG-polyHis [8]): 114
normalized MFI (huIL-17RA-FLAG-polyHis [9]): 1120
normalized MFI (huIL-17RA-FLAG-polyHis [10]): 1510
normalized MFI (huIL-17RA-FLAG-polyHis [11]): 187
normalized MFI (huIL-17RA-FLAG-polyHis [12]): 3110
normalized MFI (huIL-17RA-FLAG-polyHis [13]): 342
normalized MFI (huIL-17RA-FLAG-polyHis [14]): 1650
normalized MFI (huIL-17RA-FLAG-polyHis [15]): 253
normalized MFI (huIL-17RA-FLAG-polyHis [16]): 1020
normalized MFI (huIL-17RA-FLAG-polyHis [17]): 179
normalized MFI (huIL-17RA-FLAG-polyHis [18]): 545
normalized MFI (huIL-17RA-FLAG-polyHis [19]): 2630
normalized MFI (huIL-17RA-FLAG-polyHis [20]): 2120
normalized MFI (huIL-17RA-FLAG-polyHis [21]): 4110
B3: AMH10/AML10 (antibody, IgG2, V domains shown)
VH: QVQLQESGPGLVKPSQTLSLTCTVSGGSISSGGYYWSWIRQHPGKGLEWIGYIYFSGSAYYNPSLKSRVAISVDTSKNQFSLKLSSVTAADTAVYYCAREYYDSSGYPDAFDIWGQGTMVTVSS
VL: DIQMTQSPSSVSASVGDRVTITCRASQGIRSWLAWYQQKPGKAPKLLIFAASSLQSGVPSRFSGSGSGTEFTLTISSLQPEDFATYYCQQANNFPRTFGQGTKVEIK
notes: human mAb from IgG2 XenoMouse mice; also called AM-10; antibody F

normalized MFI (huIL-17RA-FLAG-polyHis [4]): 4260
normalized MFI (huIL-17RA-FLAG-polyHis [5]): 3180
normalized MFI (huIL-17RA-FLAG-polyHis [6]): 5640
normalized MFI (huIL-17RA-FLAG-polyHis [7]): 192
normalized MFI (huIL-17RA-FLAG-polyHis [8]): -233
normalized MFI (huIL-17RA-FLAG-polyHis [9]): 3550
normalized MFI (huIL-17RA-FLAG-polyHis [10]): 3840
normalized MFI (huIL-17RA-FLAG-polyHis [11]): 269
normalized MFI (huIL-17RA-FLAG-polyHis [12]): 6650
normalized MFI (huIL-17RA-FLAG-polyHis [13]): 318
normalized MFI (huIL-17RA-FLAG-polyHis [14]): 4690
normalized MFI (huIL-17RA-FLAG-polyHis [15]): 217
normalized MFI (huIL-17RA-FLAG-polyHis [16]): 2980
normalized MFI (huIL-17RA-FLAG-polyHis [17]): 207
normalized MFI (huIL-17RA-FLAG-polyHis [18]): 684
normalized MFI (huIL-17RA-FLAG-polyHis [19]): 5540
normalized MFI (huIL-17RA-FLAG-polyHis [20]): 3640
normalized MFI (huIL-17RA-FLAG-polyHis [21]): 8680
B4: AMH7/AML7 (antibody, IgG2, V domains shown)
VH: QVQLVQSGAEVKKPGASVKVSCKASGYTLTRYGISWVRQAPGQGLEWMGWISAYNGNTNYAQKLQGRVTMTTDTSTSTAYMELRSLRSDDTAVYYCARRDYDILTGYYNGFDPWGQGTLVTVSS
VL: DIQMTQSPSSLSASVGDRVTITCRASQGIRNDLGWYQQKPGKAPKRLIYAASSLQSGVPSRFSGSGSGTEFTLTISSLQPEDFATYYCLQHKSYPLTFGGGTKVEIK
notes: human mAb from IgG2 XenoMouse mice; also called AM-7; antibody D

normalized MFI (huIL-17RA-FLAG-polyHis [4]): 2660
normalized MFI (huIL-17RA-FLAG-polyHis [5]): 2540
normalized MFI (huIL-17RA-FLAG-polyHis [6]): 3530
normalized MFI (huIL-17RA-FLAG-polyHis [7]): 130
normalized MFI (huIL-17RA-FLAG-polyHis [8]): -70.5
normalized MFI (huIL-17RA-FLAG-polyHis [9]): 1660
normalized MFI (huIL-17RA-FLAG-polyHis [10]): 2410
normalized MFI (huIL-17RA-FLAG-polyHis [11]): 152
normalized MFI (huIL-17RA-FLAG-polyHis [12]): 4330
normalized MFI (huIL-17RA-FLAG-polyHis [13]): 334
normalized MFI (huIL-17RA-FLAG-polyHis [14]): 2390
normalized MFI (huIL-17RA-FLAG-polyHis [15]): 173
normalized MFI (huIL-17RA-FLAG-polyHis [16]): 1770
normalized MFI (huIL-17RA-FLAG-polyHis [17]): 168
normalized MFI (huIL-17RA-FLAG-polyHis [18]): 447
normalized MFI (huIL-17RA-FLAG-polyHis [19]): 3310
normalized MFI (huIL-17RA-FLAG-polyHis [20]): 2420
normalized MFI (huIL-17RA-FLAG-polyHis [21]): 5600
B5: AMH6/AML6 (antibody, IgG2, V domains shown)
VH: B4 VH
VL: B4 VL
notes: human mAb from IgG2 XenoMouse mice; also called AM-6; antibody E
